# Earlier results as cited in PMC4464172.
# Molecular target: CAII (Homo sapiens) (UniProt P00918)
# Experiment: isothermal titration calorimetry
substance,measurement,value
NBCe1-A (from UniProt Q9Y6R1),Kd,160 nM
